# Data taken from doi:10.1101/2021.05.23.445348.
# Target: SARS-CoV-2 spike receptor binding domain, wild type (SARS-CoV-2) (UniProt P0DTC2)
# Assay: ITC
substance,measurement,value
CC12.1 single chain variable fragment (scFv),Kd,28 nM
same,dH,4.8 kcal/mol
same,stoichiometry N,1
